We go through three molecules from publication doi:10.1101/096651 (bioRxiv, 2016).

Holding throughout (assay): SEC
Data set [1] addresses C-terminal OCP-related Carotenoid Protein (COCP), carotenoid-bound OCP-CTD (Synechocystis sp. PCC 6803) (UniProt P74102).
Data set [2] deals with Apo-COCP (colorless apoprotein of COCP, OCP-CTD without carotenoid) (Synechocystis sp. PCC 6803) (UniProt P74102).
The data set “SEC” concerns the molecule itself.

For “C-terminal OCP-related Carotenoid Protein (COCP), carotenoid-bound OCP-CTD (from UniProt P74102 1-317) (domain or fragment)”, in data set [1], the stoichiometry N was 2.
The molecule “Apo-COCP (colorless apoprotein of COCP, OCP-CTD without carotenoid) (from UniProt P74102 1-317) (domain or fragment)” registered a stoichiometry N in data set [2] of 2.

B1: Fluorescence Recovery Protein (FRP) (natural protein)
chain: MLQTAEAPWSQAETQSAHALFRKAYQRELDGLLATVQAQASQITQIDDLWKLHDFLSAKRHEIDGKYDDRQSVIIFVFAQLLKEGLVQAEELTFLAADKQSKIKALARL
With B1, the “stoichiometry N” value in the data set “SEC” amounted to 2.

As a reminder, the stoichiometry N is the number of molecules, sites or subunits per partner or assembly.
